Here are results for one substance from patent US20210063414A1, “METHODS FOR PREVENTING AND/OR TREATING BONE LOSS CONDITIONS BY MODULATING IRISIN” (Dana-Farber Cancer Institute, Inc., priority 2018, published 2021).

In this experiment the target is T1, MLO-Y4 cell surface proteins (Mus musculus, UniProt E9Q9D8).
T1 construct: endogenous in cells; host or cells: MLO-Y4
T1 sequence (E9Q9D8 1-996): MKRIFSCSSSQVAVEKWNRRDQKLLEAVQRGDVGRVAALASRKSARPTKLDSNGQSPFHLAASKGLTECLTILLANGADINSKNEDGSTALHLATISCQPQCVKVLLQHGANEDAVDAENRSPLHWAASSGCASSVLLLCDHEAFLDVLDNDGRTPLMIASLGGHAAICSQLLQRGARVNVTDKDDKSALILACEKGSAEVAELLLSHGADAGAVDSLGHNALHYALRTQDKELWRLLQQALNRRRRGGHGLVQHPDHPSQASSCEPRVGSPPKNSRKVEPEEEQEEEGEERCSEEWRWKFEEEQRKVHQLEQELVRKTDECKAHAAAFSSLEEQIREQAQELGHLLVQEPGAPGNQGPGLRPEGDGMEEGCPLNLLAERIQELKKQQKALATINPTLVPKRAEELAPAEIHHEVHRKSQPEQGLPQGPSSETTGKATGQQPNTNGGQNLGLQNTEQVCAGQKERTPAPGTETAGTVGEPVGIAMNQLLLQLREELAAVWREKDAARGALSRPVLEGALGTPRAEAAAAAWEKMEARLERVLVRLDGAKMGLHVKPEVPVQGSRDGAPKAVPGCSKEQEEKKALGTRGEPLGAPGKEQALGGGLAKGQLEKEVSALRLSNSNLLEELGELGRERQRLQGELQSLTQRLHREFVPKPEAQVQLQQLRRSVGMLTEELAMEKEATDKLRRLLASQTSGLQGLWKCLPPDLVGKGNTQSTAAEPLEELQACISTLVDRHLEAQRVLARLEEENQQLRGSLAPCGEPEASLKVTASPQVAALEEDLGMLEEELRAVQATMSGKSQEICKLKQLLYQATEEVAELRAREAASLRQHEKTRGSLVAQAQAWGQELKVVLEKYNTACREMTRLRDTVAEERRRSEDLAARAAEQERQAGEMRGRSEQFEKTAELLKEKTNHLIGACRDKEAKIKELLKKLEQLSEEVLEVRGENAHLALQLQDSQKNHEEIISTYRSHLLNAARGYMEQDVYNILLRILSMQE
Kind of experiment: Crosslinking/co-immunoprecipitation/mass spectrometry (TMT quantitative proteomics) to identify irisin receptors. It counts as binding. To be noted: co-precipitated protein Ankrd35 (E9Q9D8_MOUSE). The method in brief:
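Mouse MLO-Y4 cells were switched to serum-free FreeStyle medium for 4 h, chilled, then exposed to 10 nM His-tagged irisin (or adipsin as control) for 20 min. Cells were crosslinked with 1.5 mM DTSSP (30 min, ice), and bound proteins were pulled down on Ni-NTA and eluted with 250 mM imidazole. Eluates were separated by SDS-PAGE, trypsin-digested in gel, TMT 6-plex labelled and quantified by MS3-based LC-MS/MS on an Orbitrap Fusion Lumos.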

Take adipsin: the TMT signal-to-noise ratio is reported as 314.798.
